Our source for the K M PDI for Erp41 as substrate of 1 μM Ero1–Pdi1 complex, oxygen consumption assay (titration of Erp41, 10 mM GSH) and kcat of oxygen consumption, 1 μM Ero1–Pdi1 complex plus 10 μM Erp41 values is publication PMC10938136.

The test deals with Komagataella phaffii Ero1 (Komagataella phaffii) (UniProt F2QNN1).
Sequence of UniProt F2QNN1 (F2QNN1 entry or part of it): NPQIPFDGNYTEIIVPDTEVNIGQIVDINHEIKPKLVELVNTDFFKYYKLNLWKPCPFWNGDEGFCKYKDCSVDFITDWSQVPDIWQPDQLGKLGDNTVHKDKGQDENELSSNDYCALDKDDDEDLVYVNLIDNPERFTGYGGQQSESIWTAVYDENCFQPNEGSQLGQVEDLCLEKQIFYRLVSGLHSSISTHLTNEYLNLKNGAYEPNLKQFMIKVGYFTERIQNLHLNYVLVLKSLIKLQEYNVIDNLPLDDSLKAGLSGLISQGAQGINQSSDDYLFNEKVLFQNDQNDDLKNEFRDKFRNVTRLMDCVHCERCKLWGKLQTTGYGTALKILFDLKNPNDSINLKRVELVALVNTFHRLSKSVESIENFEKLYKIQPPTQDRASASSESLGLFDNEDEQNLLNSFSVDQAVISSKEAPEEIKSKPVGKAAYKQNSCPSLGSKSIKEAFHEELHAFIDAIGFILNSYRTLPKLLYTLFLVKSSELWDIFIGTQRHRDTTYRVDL

Consider “Komagataella phaffii Erp41, full length, purified (enzyme)”, for which the K M PDI for Erp41 as substrate of 1 μM Ero1–Pdi1 complex, oxygen consumption assay (titration of Erp41, 10 mM GSH) stood at 7.07 µM and the kcat of oxygen consumption, 1 μM Ero1–Pdi1 complex plus 10 μM Erp41 is 1.95 s⁻¹.
